Assay results taken from publication PMC11187071.
Numbering of substitutions follows the chain as printed. In names and notes the source's numbering stands. Blank lines part the entries; values can stand above or below the binder they belong to.

Tests used:
[1] = target: IgG150-18 (scFv150-18 cloned into human IgG format); assay: FACS binding assay; conditions: chain shown with the change, read off a plot
[2] = target: IgG150-18 (scFv150-18 cloned into human IgG format); assay: FACS assay on cells; conditions: chain shown with the change; highest antibody concentration point, Log [IgG150_18] (M) about -7.5; parent: est. 100; read off a plot
[3] = 100nM antibody, parent: est. 100

Chain of IgG150-18 (scFv150-18 cloned into human IgG format) (chain, as listed by the source, chain 1 of 2): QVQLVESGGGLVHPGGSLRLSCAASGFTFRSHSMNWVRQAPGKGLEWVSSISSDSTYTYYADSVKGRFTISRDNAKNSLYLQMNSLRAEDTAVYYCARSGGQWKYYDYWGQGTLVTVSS
Chain of IgG150-18 (scFv150-18 cloned into human IgG format) (chain, as listed by the source, chain 2 of 2): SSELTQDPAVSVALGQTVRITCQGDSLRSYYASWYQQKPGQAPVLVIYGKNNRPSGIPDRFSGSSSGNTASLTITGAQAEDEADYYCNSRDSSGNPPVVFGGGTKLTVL

percent of parent ([1]; 1nM antibody, parent: est. 8): 5 % of WT
percent of parent ([1]; 10nM antibody, parent: est. 75): 72 % of WT
percent of parent [1, 3]: 95 % of WT
B1: WT GPRC5D expressed on HEK293T cells, Q9NZD1 E83A (protein)
chain: MYKDCIESTGDYFLLCDAEGPWGIILESLAILGIVVTILLLLAFLFLMRKIQDCSQWNVLPTQLLFLLSVLGLFGLAFAFIIALNQQTAPVRYFLFGVLFALCFSCLLAHASNLVKLVRGCVSFSWTTILCIAIGCSLLQIIIATEYVTLIMTRGMMFVNMTPCQLNVDFVVLLVYVLFLMALTFFVSKATFCGPCENWKQHGRLIFITVLFSIIIWVVWISMLLRGNPQFQRQPQWDDPVVCIALVTNAWVFLLLYIVPELCILYRSCRQECPLQGNACPVTAYQHSFQVENQELSRARDSDGAEEDVALTSYGTPIQPQTVDPTQECFIPQAKLSPQQDAGGV

percent of parent ([1]; 10nM antibody, parent: est. 75): 43 % of WT
percent of parent [1, 3]: 95 % of WT
B2: WT GPRC5D expressed on HEK293T cells, Q9NZD1 P235A (protein)
chain: B1 chain with A83E, P235A

percent of parent ([1]; 10nM antibody, parent: est. 75): 1 % of WT
B3: WT GPRC5D expressed on HEK293T cells, Q9NZD1 C16A (protein)
chain: B1 chain with C16A, A83E

percent of parent ([1]; 10nM antibody, parent: est. 75): 38 % of WT
percent of parent [1, 3]: 63 % of WT
B4: WT GPRC5D expressed on HEK293T cells, Q9NZD1 L15A (protein)
chain: B1 chain with L15A, A83E

percent of parent [2]: 3 % of WT
B5: WT GPRC5D expressed on HEK293T cells, Q9NZD1 S8G; D11G; L15G; C16G; D17G (protein)
chain: B1 chain with S8G, D11G, L15G, C16G, D17G, A83E

percent of parent [2]: 100 % of WT
B6: WT GPRC5D expressed on HEK293T cells, Q9NZD1 P235G; Q236G (protein)
chain: B1 chain with A83E, P235G, Q236G

percent of parent [2]: 82 % of WT
B7: WT GPRC5D expressed on HEK293T cells, Q9NZD1 R154G; V159G; N160G; T162G; P163G; L166G (protein)
chain: B1 chain with A83E, R154G, V159G, N160G, T162G, P163G, L166G

percent of parent ([1]; 1nM antibody, parent: est. 8): 11 % of WT
percent of parent ([1]; 10nM antibody, parent: est. 75): 82 % of WT
percent of parent [1, 3]: 100 % of WT
B8: WT GPRC5D expressed on HEK293T cells, Q9NZD1 T9A (protein)
chain: B1 chain with T9A, A83E

percent of parent ([1]; 1nM antibody, parent: est. 8): 3 % of WT
percent of parent ([1]; 10nM antibody, parent: est. 75): 65 % of WT
percent of parent [1, 3]: 92 % of WT
B9: WT GPRC5D expressed on HEK293T cells, Q9NZD1 S8A (protein)
chain: B1 chain with S8A, A83E

percent of parent [1, 3]: 42 % of WT
B10: WT GPRC5D expressed on HEK293T cells, Q9NZD1 D11A (protein)
chain: B1 chain with D11A, A83E

percent of parent [2]: 97 % of WT
B11: WT GPRC5D expressed on HEK293T cells, Q9NZD1 E83G; L84G (protein)
chain: B1 chain with A83G, L84G

percent of parent ([1]; 10nM antibody, parent: est. 75): 53 % of WT
percent of parent [1, 3]: 75 % of WT
B12: WT GPRC5D expressed on HEK293T cells, Q9NZD1 Q236A (protein)
chain: B1 chain with A83E, Q236A

percent of parent ([1]; 10nM antibody, parent: est. 75): 1 % of WT
percent of parent [2]: 12 % of WT
B13: WT GPRC5D expressed on HEK293T cells, Q9NZD1 S8G; D11G; L15G; C16G; D17G; E83G; L84G; R154G; V159G; N160G; T162G; P163G; L166G; P235G; Q236G (protein)
chain: MYKDCIEGTGGYFLGGGAEGPWGIILESLAILGIVVTILLLLAFLFLMRKIQDCSQWNVLPTQLLFLLSVLGLFGLAFAFIIGGNQQTAPVRYFLFGVLFALCFSCLLAHASNLVKLVRGCVSFSWTTILCIAIGCSLLQIIIATEYVTLIMTGGMMFGGMGGCQGNVDFVVLLVYVLFLMALTFFVSKATFCGPCENWKQHGRLIFITVLFSIIIWVVWISMLLRGNPQFQRQGGWDDPVVCIALVTNAWVFLLLYIVPELCILYRSCRQECPLQGNACPVTAYQHSFQVENQELSRARDSDGAEEDVALTSYGTPIQPQTVDPTQECFIPQAKLSPQQDAGGV
